Biological target: T1, TRF1 (recombinant, in-house purified) (UniProt P54274)
T1 sequence: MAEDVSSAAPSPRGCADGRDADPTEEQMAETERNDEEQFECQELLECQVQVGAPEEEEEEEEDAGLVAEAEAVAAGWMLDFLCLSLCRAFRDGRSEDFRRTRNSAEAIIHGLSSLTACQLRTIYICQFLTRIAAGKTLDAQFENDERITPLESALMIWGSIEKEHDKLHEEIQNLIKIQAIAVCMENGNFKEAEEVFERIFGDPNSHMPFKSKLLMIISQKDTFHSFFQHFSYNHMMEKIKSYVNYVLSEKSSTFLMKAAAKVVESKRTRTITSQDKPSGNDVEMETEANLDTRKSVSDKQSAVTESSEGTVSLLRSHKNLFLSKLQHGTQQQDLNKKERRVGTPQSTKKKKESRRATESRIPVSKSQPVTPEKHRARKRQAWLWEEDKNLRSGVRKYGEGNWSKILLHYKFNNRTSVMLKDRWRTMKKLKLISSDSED
Test: EMSA
Conditions: 2 mM Mg2+, 50 mM Tris-Cl pH 8.0, 2 mM MgCl2, 150 mM KCl, 0.5 mM DTT, 10% glycerol, 5 nM oligonucleotide, 30 min room temperature, 1% agarose gel in 1x TBE at 4 C

Sequence: GACCATGCTTAGGGTTAGGGTTAGGGTTAGGGTTATCATACAA (double strand) [TelDNA]
- binding signal (scale: fold): 1

Sequence: GACCATGCTTATCCCCATTTGTATTATCCCCATTTCATACAAA (double strand) [Non-TelDNA]
- binding signal (fold lower binding than TelDNA): 5

Sequence: GACCAUGCUUAGGGUUAGGGUUAGGGUUAGGGUUAUCAUACAA / TTGTATGATAACCCTAACCCTAACCCTAACCCTAAGCATGGTC [Telomeric DNA:RNA hybrid]
- binding signal (fold lower affinity than TelDNA) (strand 1 is RNA, strand 2 is DNA): 7

— paper PMC11992676
